Where a chain is given by its changes, count along the chain named.
Columns and labels:
His6CPS-6, Q95NM6 = biological target: T1, His6CPS-6, Q95NM6
T1 chain: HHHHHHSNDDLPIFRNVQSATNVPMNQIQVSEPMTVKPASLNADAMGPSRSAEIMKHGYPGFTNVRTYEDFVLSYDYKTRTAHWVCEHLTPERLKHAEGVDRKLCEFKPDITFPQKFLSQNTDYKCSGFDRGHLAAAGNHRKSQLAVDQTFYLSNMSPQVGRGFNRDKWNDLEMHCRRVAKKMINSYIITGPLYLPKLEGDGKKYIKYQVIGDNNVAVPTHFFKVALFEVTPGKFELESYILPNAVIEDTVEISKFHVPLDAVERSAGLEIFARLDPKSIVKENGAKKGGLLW

[1] = biological target: T2, ^35S-Methionine labeled CRN-1, Q9N3T2
T2 chain: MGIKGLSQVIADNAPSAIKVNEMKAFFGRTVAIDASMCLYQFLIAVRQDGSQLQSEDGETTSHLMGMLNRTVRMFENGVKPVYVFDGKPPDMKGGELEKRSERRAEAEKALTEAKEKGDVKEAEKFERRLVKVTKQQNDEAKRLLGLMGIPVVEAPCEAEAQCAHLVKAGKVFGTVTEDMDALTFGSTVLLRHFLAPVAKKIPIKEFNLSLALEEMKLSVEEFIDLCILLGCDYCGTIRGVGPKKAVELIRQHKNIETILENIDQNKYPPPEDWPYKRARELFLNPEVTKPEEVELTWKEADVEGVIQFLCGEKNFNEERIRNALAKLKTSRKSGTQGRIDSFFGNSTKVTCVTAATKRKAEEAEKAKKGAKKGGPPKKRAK

B1: CRN-1-His6 (protein)
chain: MGIKGLSQVIADNAPSAIKVNEMKAFFGRTVAIDASMCLYQFLIAVRQDGSQLQSEDGETTSHLMGMLNRTVRMFENGVKPVYVFDGKPPDMKGGELEKRSERRAEAEKALTEAKEKGDVKEAEKFERRLVKVTKQQNDEAKRLLGLMGIPVVEAPCEAEAQCAHLVKAGKVFGTVTEDMDALTFGSTVLLRHFLAPVAKKIPIKEFNLSLALEEMKLSVEEFIDLCILLGCDYCGTIRGVGPKKAVELIRQHKNIETILENIDQNKYPPPEDWPYKRARELFLNPEVTKPEEVELTWKEADVEGVIQFLCGEKNFNEERIRNALAKLKTSRKSGTQGRIDSFFGNSTKVTCVTAATKRKAEEAEKAKKGAKKGGPPKKRAKHHHHHH
His6CPS-6, Q95NM6
  nuclease activity (plasmid cleavage assay): complete plasmid degradation and approximately 500% increase in nuclease activity

B2: CRN-1(DY-AA) (protein)
chain: T2 chain with D233A, Y234A
His6CPS-6, Q95NM6
  CPS-6 nuclease activity (plasmid cleavage assay): continuing enhancement of CPS-6 nuclease activity, though less potently than the wild type CRN-1 protein

B3: full-length ^35S-methionine labeled CPS-6 (protein)
chain: MIGKVAGTAAIAGISFLAGKYSNDDLPIFRNVQSATNVPMNQIQVSEPMTVKPASLNADAMGPSRSAEIMKHGYPGFTNVRTYEDFVLSYDYKTRTAHWVCEHLTPERLKHAEGVDRKLCEFKPDITFPQKFLSQNTDYKCSGFDRGHLAAAGNHRKSQLAVDQTFYLSNMSPQVGRGFNRDKWNDLEMHCRRVAKKMINSYIITGPLYLPKLEGDGKKYIKYQVIGDNNVAVPTHFFKVALFEVTPGKFELESYILPNAVIEDTVEISKFHVPLDAVERSAGLEIFARLDPKSIVKENGAKKGGLLW
[1]
  gap-dependent endonuclease activity of CRN-1: it enhanced the gap-dependent endonuclease activity of CRN-1 by more than 200%

— patent US20050142568
